Assay results as given in the supplement of paper PMC12042874.
± gives the uncertainty stated by the source.

Assay: amyloid nucleation score (Sup35N fusion, yeast selection) (log enrichment); library NNK1; higher = more nucleation; inactive = no reads after selection
In short: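 Libraries of peptides of 20 random codons fused to Sup35N were expressed in psi-negative yeast and induced 24 hours with 100 μM copper sulfate. Selection was 7 days at 30°C on medium lacking adenine and uracil, and plasmid inserts were Illumina-sequenced before and after selection. Nucleation score is the DiMSum log enrichment of output over input reads, centred on the mode score of non-aggregating sequences, and sequences with under 100 input reads were left out.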

Row | Substance | amyloid nucleation score
1 | VAAFEIMHLLISCDNRCRFQ | 0.337 ± 0.38
2 | VAEEYSN | inactive
3 | VAFVLLTQVGGWRLGIWRRK | -1.09 ± 0.66
4 | VAGFPVEDRLRQISSWAVSG | -1.07 ± 0.62
5 | VAHSLYLNIYGFQLMS | 7.454 ± 0.06
6 | VATRYWSRLCTMFVHSTRTT | inactive
7 | VCFEVWSGHFSASLTM | 0.663 ± 0.44
8 | VCGEYEITVKIISVSRSNKC | 1.45 ± 0.26
9 | VCIVPIVYPLFKFSVSNDPT | -0.202 ± 0.57
10 | VCKWNSSIFLYNRPSVSAAV | 0.123 ± 0.4
11 | VCLANGHWATHMHYIFHYLS | -0.915 ± 0.73
12 | VCNFLFAFSFW | 6.746 ± 0.064
13 | VCNQWGDHA | -1.08 ± 1.7
14 | VCRRVHGSMP | -0.236 ± 1.2
15 | VCSCRFLYI | -1.53 ± 1.6
16 | VCTCFSSWAWEVNF | 3.28 ± 0.083
17 | VCYGVLPFEEWKMSFSACVT | 0.369 ± 0.37
18 | VDCLFLKHHFFLTVSSMVRN | 1.43 ± 0.84
19 | VDNSCFRGT | -0.391 ± 0.66
20 | VDRVGYIP | -0.506 ± 0.47
21 | VDYMERGYYAYIMVGICI | inactive
22 | VECLAAVNYGEVHDPGVMDR | 0.417 ± 0.71
23 | VEFGSHVFYLKGRSDKAKYL | -0.283 ± 0.45
24 | VEGLERLLVLWHWPFAWNYF | -0.735 ± 1.4
25 | VELSYCMQRMSARIQCGRKP | 2.09 ± 0.43

Row | Substance | amyloid nucleation score
26 | VERGY | 1.03 ± 0.61
27 | VETIRQINVHVSGVDIHFWD | 6.872 ± 0.045
28 | VFALMRISSNSMSKCQFVCD | -0.187 ± 0.39
29 | VFCYQT | 0.055 ± 1.1
30 | VFFGLTICFFVAHHCQERGS | 2.54 ± 0.21
31 | VFFLGMVCAVWATFDVSYNG | 1.31 ± 0.35
32 | VFFSKI | 1.08 ± 0.53
33 | VFFYSRT | 3.02 ± 0.08
34 | VFGSKFGLKLITDFINILLR | inactive
35 | VFIDGLTSYTEIMRL | inactive
36 | VFIVELNFMLRN | 4.69 ± 0.055
37 | VFKESGSRGFVMYTGILSCQ | 0.507 ± 0.68
38 | VFLVTIWRSIMVLWNTVW | -0.284 ± 0.47
39 | VFLVYLY | -0.608 ± 0.28
40 | VFMMSDTC | inactive
41 | VFNTGYRVSRILDLGYKFNM | inactive
42 | VFSFYNRNLLILNISLYGYC | 5.89 ± 0.085
43 | VFSKLDTLFTVSMTLRPMWP | 0.566 ± 0.79
44 | VFSSVGGETSYRCMGTASGT | -0.231 ± 0.46
45 | VFVVNTTESWHNLALFWSSR | 0.382 ± 0.45
46 | VFWGL | 0.072 ± 0.47
47 | VFYVCFNAKLPLLGYFDLKV | inactive
48 | VGGGSRWDIRDNSNQSIIPM | -0.338 ± 0.34
49 | VGGNPN | 1.19 ± 0.98
50 | VGIPRYGYEPVVHALVKPFE | 0.959 ± 0.79

Row | Substance | amyloid nucleation score
51 | VGIWLGTGTWGCKGL | 0.485 ± 0.66
52 | VGRFLSYGRWLA | -0.393 ± 0.42
53 | VGRNQNKTDEG | 0.564 ± 0.95
54 | VGSSLDMPAPKRVGSEYCSV | 0.279 ± 0.66
55 | VGTTDG | inactive
56 | VGVVGDYDLQIS | -1.2 ± 2.4
57 | VGWTALVQALGNGTQHGVVT | 0.394 ± 0.78
58 | VGYGASMYYYFFWHKFFLVF | 0.037 ± 1
59 | VGYHFMYSMSAFVASWRSWG | -0.482 ± 0.88
60 | VGYSPVVFSLNNICGSPFLM | 5.277 ± 0.047
61 | VHDENYDRFQGFVLDMLQAH | 0.641 ± 0.37
62 | VHEMNSRTDFYKIKKSGTLV | 0.158 ± 0.29
63 | VHSGNMMSNFGWAERLHKKA | -0.39 ± 1.2
64 | VHTWYHCLSAEMSVMSILDL | -0.39 ± 1.7
65 | VHYWLVNSSTKRGRPFASAF | -0.231 ± 0.36
66 | VIDRTEGTYCREITTFHYYN | -0.378 ± 0.62
67 | VIHVSTYDSGVLPLKEDGTF | 0.151 ± 0.4
68 | VILVFRVDNCTERKAN | -0.097 ± 0.5
69 | VIMLVNDAFVGI | -0.543 ± 0.26
70 | VISHEPAVFPTSRS | 0.121 ± 0.45
71 | VITFITSL | 3.85 ± 0.064
72 | VITGYVCMDSVQFIWYVVWV | -0.638 ± 1
73 | VITVRLFILW | -0.213 ± 0.43
74 | VIVFCCSEDNRRGQLKV | -1.49 ± 0.84
75 | VIYSSIHKLSDGDRVENPRS | -0.933 ± 0.96

Row | Substance | amyloid nucleation score
76 | VKDASFRFAQQEGMRLRMQS | 0.503 ± 0.38
77 | VKDATSHASGDFGRPGHWDK | -0.042 ± 0.55
78 | VKLTNLGFRGKFDVVDCHWI | -0.546 ± 0.34
79 | VKMFMD | 0.644 ± 0.59
80 | VKMYRAFIQGYGSLDRRQFP | 0.45 ± 0.42
81 | VKRGHNGGSAITISLDLYLF | 5.11 ± 0.069
82 | VKSADIIVL | -0.357 ± 0.34
83 | VKSSFNMSARVVLDENIHER | -0.067 ± 0.69
84 | VKVCMGLGYSGLMLGGLWDS | -0.491 ± 1.9
85 | VKYLRYFSSLDLLLIVLQAI | 0.31 ± 1.2
86 | VKYTYDS | -0.238 ± 0.65
87 | VLARNRWRRKWRHTRGWVRG | 0.157 ± 1.4
88 | VLCNLTVS | -0.907 ± 1.8
89 | VLESLAYFPGFNEWCGDMMS | 1.43 ± 0.42
90 | VLFGWGCGNTFSRPSNRGQR | 0.97 ± 0.37
91 | VLFIFRSRFNVE | 3.47 ± 0.11
92 | VLGERYCPSNVLWLHLCGGE | 0.315 ± 0.28
93 | VLGMPSLRILYITCCSDMVC | 6.37 ± 0.046
94 | VLHEGCIMFKKLLLKALCRR | -0.128 ± 0.45
95 | VLLGSCWVFKSQKGRGPSSC | -0.51 ± 0.69
96 | VLLQELLSYITIGCLELGFG | 0.11 ± 0.3
97 | VLMITGVCCSHNMLVLADKR | 6.609 ± 0.057
98 | VLMLCCMGSTRVCMTYMPDN | 6.885 ± 0.064
99 | VLMRSEMESRFNEGRSTQGC | 0.361 ± 0.3
100 | VLPFSLFAYAACFVLTLTYV | 0.274 ± 1.1

Row | Substance | amyloid nucleation score
101 | VLRKTFGCFETMV | 3.92 ± 0.073
102 | VLSAYSFYVSIWYNFSFIYG | 0.689 ± 0.57
103 | VLSCLPHAINFFYPSRSK | 1.05 ± 0.35
104 | VLSVNAV | -0.482 ± 0.51
105 | VLTCKE | -1.55 ± 1.2
106 | VLTEGYLFTSLIDL | -0.22 ± 0.43
107 | VLYFYFFIQIRVGIQYSVKN | 2.41 ± 0.41
108 | VLYGADDVLVRVSTCVYMGG | -0.136 ± 0.25
109 | VLYQRVRTGTTYGRARRLDV | -0.622 ± 1.7
110 | VMCQCYSGGM | 1.31 ± 0.4
111 | VMCVTIMSVFWNGLRNVEAM | 0.977 ± 0.18
112 | VMDQLIV | inactive
113 | VMKGSRHVRDKRALYYDILR | -0.308 ± 0.59
114 | VMLMCYPLTRPRCGTERNMF | 0.091 ± 0.49
115 | VNGYFAASDECFWCRSAGPN | 0.555 ± 0.34
116 | VNHIWWEFQGVSAYSNFRRD | -0.417 ± 1.5
117 | VNNFIDCSSFCVYYLFKPGR | 7.671 ± 0.051
118 | VNTMPILFFMPCVMKLSV | 1.53 ± 0.57
119 | VNYFARSGASKICML | -0.366 ± 0.88
120 | VPANEFCMADIMHRANRMLG | 0.758 ± 0.71
121 | VPILFRLLVNTSPYNGPLGL | -0.042 ± 0.56
122 | VPRLLYQFLTSHTVVDSPEV | -0.069 ± 0.56
123 | VPSLRYYLYGSFFVI | -2.49 ± 1.7
124 | VQFSLGALFWWPWGR | 2.27 ± 0.22
125 | VQSIRRKVLETRQERVGAQR | 0.04 ± 0.42

Row | Substance | amyloid nucleation score
126 | VRAGH | 0.087 ± 0.27
127 | VRARVLSKTIMMTTYERHLV | -0.691 ± 1.7
128 | VRCTFLVKVDWTFYKASRPR | 0.087 ± 0.47
129 | VRFFM | -0.422 ± 0.45
130 | VRFKGMWHKQ | -1.04 ± 1.1
131 | VRGLGGW | -0.134 ± 0.97
132 | VRGYGGVC | -0.296 ± 0.3
133 | VRIINMFVDPNIIL | 6.818 ± 0.044
134 | VRIRPISPMPDYSPPANWSK | 0.041 ± 0.47
135 | VRISVCNYWFMVVGMAF | 0.251 ± 0.31
136 | VRLFMYMCIWMFMSDSSIWG | -0.348 ± 0.64
137 | VRLLEHSANPSMGKMNMNVG | 0.231 ± 0.74
138 | VRLTSINSLCIVGDTQGST | 0.945 ± 0.73
139 | VRMIFVQCWKCTESNFCERN | -0.174 ± 0.66
140 | VRRCFFVYSVR | -0.979 ± 1.2
141 | VRTSVCCTRALAMLRSLWVT | -0.625 ± 0.73
142 | VRVPCDIAIYMYGGLKALLS | -0.245 ± 1.3
143 | VRVWTYLAWVQYLPYQMGLF | inactive
144 | VRWCYILQQ | inactive
145 | VRWDPVRRIWFALR | inactive
146 | VRYSGNMLSSTSVNGIFGHE | 0.067 ± 0.28
147 | VSCANMNIDELTWHVDWWCL | 7.597 ± 0.047
148 | VSCMRDIIRLCYQQTPICKF | -0.272 ± 0.84
149 | VSCWLQISDLRAVAWPLRSF | 0.588 ± 0.21
150 | VSDRRTGVLRIHCNFKVGLS | 1.89 ± 0.16

Row | Substance | amyloid nucleation score
151 | VSEDVFLWVKLSLTAGSEGR | -0.973 ± 0.4
152 | VSFGIFMNESYV | 1.52 ± 0.098
153 | VSFNGFLHLFWVFILLNSPW | 6.98 ± 0.085
154 | VSGIVPDDLSVFDVHSKYV | 0.455 ± 0.33
155 | VSGSVFTNMIANILSTSRYV | -0.179 ± 1.6
156 | VSHYGCFQTVCDLRVGGPPE | -1.4 ± 2.4
157 | VSKTTRSCCWELFEA | -0.052 ± 0.42
158 | VSLCAQRYVIMMSIVRTKSL | 0.105 ± 0.22
159 | VSLCEMNRSFCWDAGASGRV | 0.621 ± 1
160 | VSNTSLYPDKESMLRGTEWE | 0.674 ± 0.77
161 | VSPIMFAYSMSCMSFYGEHG | 5.04 ± 0.1
162 | VSRWYVILNML | 4.03 ± 0.11
163 | VSTSHCTSFVFNIYCKYDSR | 8.542 ± 0.052
164 | VSTSNSYDSSQHDLDFRQSG | -0.162 ± 0.63
165 | VSTVLARSVWLWDTPFLRSE | -0.079 ± 0.34
166 | VSYNVRIGWAVYN | 0.89 ± 0.27
167 | VTARTRSDS | 0.55 ± 0.55
168 | VTDEFCPVLSGG | 0.317 ± 0.52
169 | VTFRIVRVLPMEPVRTRAGD | -0.972 ± 0.54
170 | VTIHETCRVWRFVRTDRRWG | 0.553 ± 0.46
171 | VTKLNMILMVGTVYGSNIGV | 6.782 ± 0.05
172 | VTNYGYDLFVLILDGAMNLS | 0.407 ± 0.51
